In PMC9372627:

Experiments:
Trio_(1284-2638) (human) = Trio_(1284-2638) (human) (UniProt O75962)

Chain of Gαq·GDP·AlF4^- (P21279 whole entry): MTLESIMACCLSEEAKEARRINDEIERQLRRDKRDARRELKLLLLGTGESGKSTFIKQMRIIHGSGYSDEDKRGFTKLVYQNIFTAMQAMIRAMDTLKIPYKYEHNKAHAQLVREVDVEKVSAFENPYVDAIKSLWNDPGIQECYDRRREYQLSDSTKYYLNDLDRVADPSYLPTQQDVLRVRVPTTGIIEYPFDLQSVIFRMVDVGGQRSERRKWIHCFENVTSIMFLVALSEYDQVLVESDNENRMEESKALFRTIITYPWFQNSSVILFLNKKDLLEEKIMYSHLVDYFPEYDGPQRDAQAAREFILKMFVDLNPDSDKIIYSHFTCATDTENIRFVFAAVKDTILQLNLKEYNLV

“Gαq·GDP·AlF4^- (from UniProt P21279 1-359) (natural protein)” was tested. Which RhoA GEF activity (FRET-based nucleotide exchange assay with MANT-GTP), enhancement by 200 nM Gαq·GDP·AlF4^- (TrioC (human)) did it give?
The RhoA GEF activity (FRET-based nucleotide exchange assay with MANT-GTP), enhancement by 200 nM Gαq·GDP·AlF4^- was 2.5 fold.

And the RhoA GEF activity (FRET-based nucleotide exchange assay with MANT-GTP), enhancement by 200 nM Gαq·GDP·AlF4^- (Trio_(1284-2638) (human))?
Its RhoA GEF activity (FRET-based nucleotide exchange assay with MANT-GTP), enhancement by 200 nM Gαq·GDP·AlF4^- is 2.5 fold.
